Experiments:
[1] = target: HDV particles coated with HBV envelope proteins (L/M/S HBsAg/ay) (Hepatitis B virus genotype D, subtype ayw) (UniProt P03138); test: cell-based or functional assay
[2] = target: PreS1 synthetic peptide p(1-36) (Hepatitis B virus (ayw)); test: solid-phase ELISA, antigen on plate
[3] = target: PreS1 synthetic peptide p(18-25) (Hepatitis B virus (ayw)); test: solid-phase ELISA, antigen on plate
[4] = target: PreS1-WHc VLP-1.1+ (19-43) (Woodchuck hepatitis virus; Hepatitis B virus (ayw)); test: solid-phase ELISA, antigen on plate
[5] = target: PreS1-WHc VLP-1.3+ (1-25) (Woodchuck hepatitis virus; Hepatitis B virus (ayw)); test: solid-phase ELISA, antigen on plate
[6] = target: PreS1-WHc VLP-1.4 (15-31) (Woodchuck hepatitis virus; Hepatitis B virus (ayw)) (UniProt P0C6J2); test: solid-phase ELISA, antigen on plate
[7] = target: PreS1-WHc VLP-1.4+ (15-34) (Woodchuck hepatitis virus; Hepatitis B virus (ayw)); test: solid-phase ELISA, antigen on plate
[8] = target: PreS1-WHc VLP-1.5 (1-34) (Woodchuck hepatitis virus; Hepatitis B virus (ayw)); test: solid-phase ELISA, antigen on plate
[9] = target: PreS1-WHc VLP-1.6 (15-40); test: solid-phase ELISA, antigen on plate
[10] = target: PreS1-WHc VLP-1.9 (83-106-NH2/1-25-loop); test: solid-phase ELISA, antigen on plate
[11] = target: combination of VLPs 1.6+1.9; test: solid-phase ELISA, antigen on plate
[12] = target: myristoylated rPreS1/PreS2 protein (Hepatitis B virus (ayw)) (UniProt P03138); test: solid-phase ELISA, antigen on plate
[13] = target: purified HBV virions (Hepatitis B virus); test: solid-phase ELISA, antigen on plate
[14] = target: recombinant (r) PreS1/PreS2 protein (Hepatitis B virus (ayw)) (UniProt P03138); test: solid-phase ELISA, antigen on plate
[15] = target: PreS1 synthetic peptide p(21-42) (Hepatitis B virus (ayw)); test: solid-phase ELISA, antigen on plate
[16] = target: PreS1-WHc VLP-1.1 (21-43) (Woodchuck hepatitis virus; Hepatitis B virus (ayw)); test: solid-phase ELISA, antigen on plate

| Substance | higher stringency neutralization assay, complete neutralization [1] | neutralization of HDV-HBV infection of HepaRG cells (intracellular HDV RNA) [1] | Min binding conc. [2] | Min binding conc. [3] | Min binding conc. [4] | Min binding conc. [5] | Min binding conc. [6] | Min binding conc. [7] | Min binding conc. [8] | Min binding conc. [9] | Min binding conc. [10] | Min binding conc. [11] | Min binding conc. [12] | Min binding conc. [13] | Min binding conc. [14] | Min binding conc. [15] | Min binding conc. [16] |
| --- | --- | --- | --- | --- | --- | --- | --- | --- | --- | --- | --- | --- | --- | --- | --- | --- | --- |
| PreS1-specific Mab 18/7 (antibody) | > 5 µg/mL | < 0.05 µg/mL | 1.6 ng/mL | 8 ng/mL | 0.3 ng/mL | 1.6 ng/mL | 0.3 ng/mL | 8 ng/mL | 0.3 ng/mL | 0.3 ng/mL | 1.6 ng/mL | 0.3 ng/mL | 0.3 ng/mL | 2 ng/mL | 0.3 ng/mL |  |  |
| PreS1-specific Mab KR-127 (antibody) |  |  | 1.6 ng/mL |  | 1000 ng/mL |  |  | 8 ng/mL |  | 1.6 ng/mL |  | 1.6 ng/mL | 1.6 ng/mL | 75 ng/mL | 1.6 ng/mL | 1.6 ng/mL | 1.6 ng/mL |
